# Target: T1, Human recombinant AXL-FND1 (GST-FND1), from pET-41b(+) (human, UniProt P30530 225-331)
# T1 construct: Expressed in E. coli, purified on Glutathione Sepharose; analyte in all Biacore measurements; GST put first by the usual layout of pET-41; not shown: GST-tag of vector pET-41b(+) (Novagen)
# T1 sequence (looked up): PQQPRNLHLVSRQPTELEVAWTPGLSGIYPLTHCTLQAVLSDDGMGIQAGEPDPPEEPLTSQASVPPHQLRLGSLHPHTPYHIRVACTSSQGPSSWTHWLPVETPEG
# Experiment: SPR (Biacore T100): antibody captured on Protein A, GST-FND1 as analyte
# Experimental: Kinetic analyses of antigen-antibody reactions of humanized AXL antibodies were carried out using Biacore T100 (BIACORE). rec-Protein A (Zymed) (hereinafter, Protein A) was immobilized onto a sensor chip, various antibodies were bound to it, then an antigen as the analyte was flushed to measure the antibody-antigen interaction. Human recombinant AXL-FND1 (prepared in 2-2; hereinafter referred to as GST-FND1) prepared at various concentrations was used as the antigen. From the sensorgrams obtained through the measurements, kinetic parameters, namely binding rate constant kₐ (1/Ms) and dissociation rate constant kd (1/s), were calculated, and Kd (M) was calculated based on these values. Biacore T100 Evaluation Software (BIACORE) was used to calculate each of the parameters.
# The sensor chips were produced by immobilizing approximately 3000 RU of Protein A onto CM5 (BIACORE) by amine coupling. Using the produced sensor chip, kinetic analyses were carried out on the interaction between the Protein A-bound antibodies and GST-FND1. HBS-EP+ was used as the running buffer, and the flow rate was set to 30 μL/min. Each antibody was prepared at 1 μg/mL using the running buffer, and was subjected to binding with Protein A for two minutes. GST-FND1 as the analyte was prepared at 0.5 and 2.0 μg/mL using HBS-EP+. Measurements were carried out by first binding the various humanized AXL antibodies, chimeric AXL antibodies, or mouse AXL antibodies of interest to Protein A, then applying an analyte solution to them for a two-minute interaction, and then switching to HBS-EP+ (BIACORE) for a two-minute measurement of the dissociation phase. After completion of measurement of the dissociation phase, 30 μL of 10 mM glycine-HCl (pH 2.0) was used for washing to regenerate the sensor chip. Such binding, dissociation, and regeneration were defined as one cycle of analysis. All experiments were performed at 25° C.
# Affinity evaluation of each of the variants by Biacore was carried out by the method of Example 2.
row,Binder,Kd [nM]
1,"H20/L0 (antibody, human IgG1, kappa, V domains shown) VH: QVTLKESGPVLVKPTETLTLTCTVSGFSLSSFGVDWVRQPPGEGLEWIGVIWGGGSTNYNSALKSRLTISKDNSKSQVVLTMTNMDPVDTATYYCAGEGSKYGAWFAYWGQGTLVTVSS VL: DVVMTQSPLSLPVTLGQPASISCRSSQNIVHTNGNTYLEWYQQKPGKAPELLIYKVSNRFSGVPDRFSGSGSGTDFTLKISRVEAEDVGVYYCFQGSHIPFTFGQGTKLEIKR",3.21
2,"H31/L0 (antibody, human IgG1, kappa) heavy: not shown light: DVVMTQSPLSLPVTLGQPASISCRSSQNIVHTNGNTYLEWYQQKPGKAPELLIYKVSNRFSGVPDRFSGSGSGTDFTLKISRVEAEDVGVYYCFQGSHIPFTFGQGTKLEIKRTVAAPSVFIFPPSDEQLKSGTASVVCLLNNFYPREAKVQWKVDNALQSGNSQESVTEQDSKDSTYSLSSTLTLSKADYEKHKVYACEVTHQGLSSPVTKSFNRGEC",2.54
3,"H25/L0 (antibody, human IgG1, kappa, V domains shown) VH: QVTLKESGPVLVKPTETLTLTCTVSGFSLSSFGVDWVRQAPGKGLEWMGVIWGGGSTNYNSALQDRLTISKDNSKSQVVLTMTNMDPVDTATYYCAGEGSKYGAWFAYWGQGTLVTVSS VL: DVVMTQSPLSLPVTLGQPASISCRSSQNIVHTNGNTYLEWYQQKPGKAPELLIYKVSNRFSGVPDRFSGSGSGTDFTLKISRVEAEDVGVYYCFQGSHIPFTFGQGTKLEIKR",2.5
4,"H21/L0 (antibody, human IgG1, kappa, V domains shown) VH: QVTLKESGPVLVKPTETLTLTCTVSGFSLSSFGVDWVRQAPGKGLEWMGVIWGGGSTNYNEALKSRLTISKDNSKSQVVLTMTNMDPVDTATYYCAGEGSKYGAWFAYWGQGTLVTVSS VL: DVVMTQSPLSLPVTLGQPASISCRSSQNIVHTNGNTYLEWYQQKPGKAPELLIYKVSNRFSGVPDRFSGSGSGTDFTLKISRVEAEDVGVYYCFQGSHIPFTFGQGTKLEIKR",2.35
5,"H32/L0 (antibody, human IgG1, kappa) heavy: not shown light: DVVMTQSPLSLPVTLGQPASISCRSSQNIVHTNGNTYLEWYQQKPGKAPELLIYKVSNRFSGVPDRFSGSGSGTDFTLKISRVEAEDVGVYYCFQGSHIPFTFGQGTKLEIKRTVAAPSVFIFPPSDEQLKSGTASVVCLLNNFYPREAKVQWKVDNALQSGNSQESVTEQDSKDSTYSLSSTLTLSKADYEKHKVYACEVTHQGLSSPVTKSFNRGEC",2.82
6,"H31/L11 (antibody, human IgG1, kappa) heavy: not shown light: DVVMTQSPLSLPVTLGQPASISCQSSQNIVHTNGNTYLEWYQQKPGKAPELLIYKVSNRFSGVPDRFSGSGSGTDFTLKISRVEAEDVGVYYCFQGSHIPFTFGQGTKVEIERTVAAPSVFIFPPSDEQLKSGTASVVCLLNNFYPREAKVQWKVDNALQSGNSQESVTEQDSKDSTYSLSSTLTLSKADYEKHKVYACEVTHQGLSSPVTKSFNRGEC",3.05
7,"H24/L0 (antibody, human IgG1, kappa, V domains shown) VH: QVTLKESGPVLVKPTETLTLTCTVSGFSLSSFGVDWVRQAPGKGLEWMGVIWGGGSTNYNSALKDRLTISKDNSKSQVVLTMTNMDPVDTATYYCAGEGSKYGAWFAYWGQGTLVTVSS VL: DVVMTQSPLSLPVTLGQPASISCRSSQNIVHTNGNTYLEWYQQKPGKAPELLIYKVSNRFSGVPDRFSGSGSGTDFTLKISRVEAEDVGVYYCFQGSHIPFTFGQGTKLEIKR",2.56
8,"H28/L0 (antibody, human IgG1, kappa, V domains shown) VH: QVTLKESGPVLVKPTETLTLTCTVSGFSLSSFGVDWVRQAPGKGLEWMGVIWGGGSTNYNEELQDRLTISKDNSKSQVVLTMTNMDPVDTATYYCAGEGSKYGAWFAYWGQGTLVTVSS VL: DVVMTQSPLSLPVTLGQPASISCRSSQNIVHTNGNTYLEWYQQKPGKAPELLIYKVSNRFSGVPDRFSGSGSGTDFTLKISRVEAEDVGVYYCFQGSHIPFTFGQGTKLEIKR",2.94
9,"H22/L0 (antibody, human IgG1, kappa, V domains shown) VH: QVTLKESGPVLVKPTETLTLTCTVSGFSLSSFGVDWVRQAPGKGLEWMGVIWGGGSTNYNSELKSRLTISKDNSKSQVVLTMTNMDPVDTATYYCAGEGSKYGAWFAYWGQGTLVTVSS VL: DVVMTQSPLSLPVTLGQPASISCRSSQNIVHTNGNTYLEWYQQKPGKAPELLIYKVSNRFSGVPDRFSGSGSGTDFTLKISRVEAEDVGVYYCFQGSHIPFTFGQGTKLEIKR",3.14
10,"H26/L12 (antibody, human IgG1, kappa) heavy: not shown light: DVVMTQSPLSLPVTLGQPASISCQSSQNIVHTNGNTYLEWYQQKPGEAPELLIYKVSNRFSGVPDRFSGSGSGTDFTLKISRVEAEDVGVYYCFQGSHIPFTFGQGTKVEIERTVAAPSVFIFPPSDEQLKSGTASVVCLLNNFYPREAKVQWKVDNALQSGNSQESVTEQDSKDSTYSLSSTLTLSKADYEKHKVYACEVTHQGLSSPVTKSFNRGEC",2.79
11,"H31/L12 (antibody, human IgG1, kappa) heavy: not shown light: DVVMTQSPLSLPVTLGQPASISCQSSQNIVHTNGNTYLEWYQQKPGEAPELLIYKVSNRFSGVPDRFSGSGSGTDFTLKISRVEAEDVGVYYCFQGSHIPFTFGQGTKVEIERTVAAPSVFIFPPSDEQLKSGTASVVCLLNNFYPREAKVQWKVDNALQSGNSQESVTEQDSKDSTYSLSSTLTLSKADYEKHKVYACEVTHQGLSSPVTKSFNRGEC",3.14
12,"H26/L13 (antibody, human IgG1, kappa) heavy: not shown light: DVVMTQSPLSLPVTLGQPASISCQSSQNIVHTNGNTYLEWYQQKPGQAPELLIYKVSNRFSGVPDRFSGSGSGTDFTLKISRVEAEDVGVYYCFQGSHIPFTFGQGTKVEIERTVAAPSVFIFPPSDEQLKSGTASVVCLLNNFYPREAKVQWKVDNALQSGNSQESVTEQDSKDSTYSLSSTLTLSKADYEKHKVYACEVTHQGLSSPVTKSFNRGEC",2.5
13,"H26/L10 (antibody, human IgG1, kappa) heavy: not shown light: DVVMTQSPLSLPVTLGQPASISCRSSQNIVHTNGNTYLEWYQQKPGKAPELLIYKVSNRFSGVPDRFSGSGSGTDFTLKISRVEAEDVGVYYCFQGSHIPFTFGQGTKVEIERTVAAPSVFIFPPSDEQLKSGTASVVCLLNNFYPREAKVQWKVDNALQSGNSQESVTEQDSKDSTYSLSSTLTLSKADYEKHKVYACEVTHQGLSSPVTKSFNRGEC",2.38
14,"H23/L0 (antibody, human IgG1, kappa, V domains shown) VH: QVTLKESGPVLVKPTETLTLTCTVSGFSLSSFGVDWVRQAPGKGLEWMGVIWGGGSTNYNSALQSRLTISKDNSKSQVVLTMTNMDPVDTATYYCAGEGSKYGAWFAYWGQGTLVTVSS VL: DVVMTQSPLSLPVTLGQPASISCRSSQNIVHTNGNTYLEWYQQKPGKAPELLIYKVSNRFSGVPDRFSGSGSGTDFTLKISRVEAEDVGVYYCFQGSHIPFTFGQGTKLEIKR",2.39
15,"H30/L0 (antibody, human IgG1, kappa) heavy: not shown light: DVVMTQSPLSLPVTLGQPASISCRSSQNIVHTNGNTYLEWYQQKPGKAPELLIYKVSNRFSGVPDRFSGSGSGTDFTLKISRVEAEDVGVYYCFQGSHIPFTFGQGTKLEIKRTVAAPSVFIFPPSDEQLKSGTASVVCLLNNFYPREAKVQWKVDNALQSGNSQESVTEQDSKDSTYSLSSTLTLSKADYEKHKVYACEVTHQGLSSPVTKSFNRGEC",2.7
16,"H27/L0 (antibody, human IgG1, kappa, V domains shown) VH: QVTLKESGPVLVKPTETLTLTCTVSGFSLSSFGVDWVRQAPGKGLEWMGVIWGGGSTNYNSELQDRLTISKDNSKSQVVLTMTNMDPVDTATYYCAGEGSKYGAWFAYWGQGTLVTVSS VL: DVVMTQSPLSLPVTLGQPASISCRSSQNIVHTNGNTYLEWYQQKPGKAPELLIYKVSNRFSGVPDRFSGSGSGTDFTLKISRVEAEDVGVYYCFQGSHIPFTFGQGTKLEIKR",3.03
17,"H31/L10 (antibody, human IgG1, kappa) heavy: not shown light: DVVMTQSPLSLPVTLGQPASISCRSSQNIVHTNGNTYLEWYQQKPGKAPELLIYKVSNRFSGVPDRFSGSGSGTDFTLKISRVEAEDVGVYYCFQGSHIPFTFGQGTKVEIERTVAAPSVFIFPPSDEQLKSGTASVVCLLNNFYPREAKVQWKVDNALQSGNSQESVTEQDSKDSTYSLSSTLTLSKADYEKHKVYACEVTHQGLSSPVTKSFNRGEC",3.03
18,"H26/L0 (antibody, human IgG1, kappa) heavy: not shown light: DVVMTQSPLSLPVTLGQPASISCRSSQNIVHTNGNTYLEWYQQKPGKAPELLIYKVSNRFSGVPDRFSGSGSGTDFTLKISRVEAEDVGVYYCFQGSHIPFTFGQGTKLEIKRTVAAPSVFIFPPSDEQLKSGTASVVCLLNNFYPREAKVQWKVDNALQSGNSQESVTEQDSKDSTYSLSSTLTLSKADYEKHKVYACEVTHQGLSSPVTKSFNRGEC",2.5
19,"H26/L11 (antibody, human IgG1, kappa) heavy: not shown light: DVVMTQSPLSLPVTLGQPASISCQSSQNIVHTNGNTYLEWYQQKPGKAPELLIYKVSNRFSGVPDRFSGSGSGTDFTLKISRVEAEDVGVYYCFQGSHIPFTFGQGTKVEIERTVAAPSVFIFPPSDEQLKSGTASVVCLLNNFYPREAKVQWKVDNALQSGNSQESVTEQDSKDSTYSLSSTLTLSKADYEKHKVYACEVTHQGLSSPVTKSFNRGEC",2.71
